Experimental data taken from patent publication US20200271651.

T1: FluHSA2 fluorogenic peptide
T1 chain: TKCATESAVNRRPCFSALK

T2: fluorescent labeled elastin protein (5-Fam-QXL520 labeled-elastin), P15502
T2 chain: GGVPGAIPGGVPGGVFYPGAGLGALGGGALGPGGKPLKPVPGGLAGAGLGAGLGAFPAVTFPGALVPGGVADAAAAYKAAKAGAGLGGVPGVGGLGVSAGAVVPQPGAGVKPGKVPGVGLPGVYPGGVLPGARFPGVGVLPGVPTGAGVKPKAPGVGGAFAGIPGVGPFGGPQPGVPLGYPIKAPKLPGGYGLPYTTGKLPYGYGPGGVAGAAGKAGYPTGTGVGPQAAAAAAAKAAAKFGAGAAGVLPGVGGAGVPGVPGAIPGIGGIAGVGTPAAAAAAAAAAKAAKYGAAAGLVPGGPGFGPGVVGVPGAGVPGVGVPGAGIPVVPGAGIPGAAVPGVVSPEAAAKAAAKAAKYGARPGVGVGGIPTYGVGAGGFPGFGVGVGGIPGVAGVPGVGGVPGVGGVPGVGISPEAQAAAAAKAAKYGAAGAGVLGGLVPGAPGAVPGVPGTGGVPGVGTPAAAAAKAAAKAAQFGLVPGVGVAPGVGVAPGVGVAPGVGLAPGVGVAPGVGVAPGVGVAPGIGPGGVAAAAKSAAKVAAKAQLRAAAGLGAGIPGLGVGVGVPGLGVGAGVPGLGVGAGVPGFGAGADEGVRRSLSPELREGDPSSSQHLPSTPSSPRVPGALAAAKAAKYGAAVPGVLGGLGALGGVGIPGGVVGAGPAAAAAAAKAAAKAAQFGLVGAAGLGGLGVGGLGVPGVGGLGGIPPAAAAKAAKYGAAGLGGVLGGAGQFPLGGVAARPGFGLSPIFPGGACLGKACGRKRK

B1: native Asp f2 (glycosylated form) of Aspergillus fumigatus (protein)
chain: ATPHEPVFFSWDAGAVTSFPIHSSCNATQRRQIEAGLNEAVELARHAKAHILRWGNESEIYRKYFGNRPTMEAVGAYDVIVNGDKANVLFRCDNPDGNCALEGWGGHWRGANATSETVICDRSYTTRRWLVSMCSQGYTVAGSETNTFWASDLMHRLYHVPAVGQGWVDHFADGYDEVIALAKSNGTESTHDSEALQYFALEAYAFDIAAPGVGCAGESHGPDQGHDTGSASAPASTSTSSSSSGSGSGATTTPTDSPSATIDVPSNCHTHEGGQLHCT
B2: active recombinant Asp f2 (residues 32-310) (protein)
chain: B1 chain

What was measured:
[1] = target: T1, FluHSA2 fluorogenic peptide
[2] = target: T2, fluorescent labeled elastin protein …

Protein	cleavage of FluHSA2 (10 uM, 16 hours at 22 C; fluorescence), native Asp f2 on anti-Asp f2-immobilized beads [1]	cleavage of FluHSA2 (fluorescence, Ex 485 nm/Em 535 nm), Asp f2 captured on 5D7A1-bound beads [1]	degradation of 5-Fam-QXL520 labeled elastin (fluorescence), native Asp f2 on 5D7A1-bound beads [2]	degradation of FITC conjugated collagen (15 ug/mL; fluorescence), native Asp f2 on 5D7A1-bound beads (FITC conjugated collagen)
B1	FluHSA2 was found to exhibit high specificity for cleavage by Asp f2 compared with Asp f3	both native and recombinant Asp f2 cleave the FluHSA2 substrate	native Asp f2 is also capable of degrading the human proteins collagen and elastin	native Asp f2 is also capable of degrading the human proteins collagen and elastin
B2		both native and recombinant Asp f2 cleave the FluHSA2 substrate		
